Reference: patent publication US20210260155A1, “H-NOX Proteins for Treating Cardiovascular and Pulmonary Conditions” (OMNIOX.INC., priority 2018, published 2021)

Test: NO reactivity
Assay type: biochemical
Method: NO reactivity is measured using purified proteins (H-NOX, polymeric H-NOX, Homo sapiens hemoglobin (Hs Hb) etc.) prepared at 2 μM in buffer A and NO prepared at 200 μM in Buffer A (Buffer A: 50 mM Hepes, pH 7.5, 50 mM NaCl). Data are acquired on a HI-TECH Scientific SF-61 stopped-flow spectrophotometer equipped with a Neslab RTE-100 constant-temperature bath set to 20° C. (TGK Scientific LTD., Bradford On Avon, United Kingdom). The protein is rapidly mixed with NO in a 1:1 ratio with an integration time of 0.00125 sec. The wavelengths of maximum change are fit to a single exponential using the software that is part of the spectrometer, essentially measuring the rate-limiting step of oxidation by NO. The end products of the reaction are ferric-NO for the HNOX proteins and ferric-aquo for Hs Hb.

B1: wild-type T. tengcongensis H-NOX: wild-type Thermoanaerobacter tengcongensis H-NOX protein, SEQ ID NO:2 (protein, listed as Thermoanaerobacter tengcongensis)
chain: MKGTIVGTWIKTLRDLYGNDVVDESLKSVGWEPDRVITPLEDIDDDEVRRIFAKVSEKTGKNVNEIWREVGRQNIKTFSEWFPSYFAGRRLVNFLMMMDEVHLQLTKMIKGATPPRLIAKPVAKDAIEMEYVSKRKMYDYFLGLIEGSSKFFKEEISVEEVERGEKDGFSRLKVRIKFKNPVFE
NO reactivity: low
